Among the data in PMC11935020 are ratio of mCherry intensity values, retold here.

For this test, the target named is improved light‐induced dimerizing protein (iLID) (Avena sativa | Escherichia coli). Briefly: recruitment to the GUV membrane, fluorescence microscopy; 450 nM iLID (His tag on DGS–NTA (Ni) lipids, inner membrane) and 100 nM SspB–mCherry encapsulated in POPC GUVs with 5% DGS–NTA (Ni); external blue light for 15 min.

B1: SspB Nano–mCherry (stringent starvation protein B, Nano, fused to mCherry), P0AFZ3 1-165 (natural protein)
chain: SSPKRPKLLREYYDWLVDNSFTPYLVVDATYLGVNVPVEYVKDGQIVLNLSASATGNLQLTNDFIQFNARFKGVSRELYIPMGAALAIYARENGDGVMFEPEEIYDELNI
modifications: not checked
With B1, the ratio of mCherry intensity at the GUV membrane to luminal intensity is 3 fold.
